Data as given in patent US20140072581A1.

What was measured:
[1] = target: CD3 on HBP-ALL (CD3+) cells (UniProt P07766); assay: live cell ELISA on HBP-ALL (CD3+) cells; OD450 grade at 1/60 dilution
[2] = target: CD19 on RAJI (CD19+) cells (UniProt P15391); assay: live cell ELISA on RAJI (CD19+) cells; legend: OD450 below 0.100 at 1/60 dilution, but higher dilutions positive (higher than neg control)
Tissue factor (TF) [3] = target: Tissue factor (TF) (UniProt P13726); assay: SPR; storage 7 d RT; SD 2.E-11; control row printed a second time
Tissue factor (TF) [4] = target: Tissue factor (TF) (UniProt P13726); assay: SPR; Fab captured on anti-hIgG chip, TF flowed over at 300 nM
Tissue factor (TF) [5] = target: Tissue factor (TF) (UniProt P13726); assay: SPR; storage 7 d RT; SD 2.E-11
Tissue factor (TF) [6] = target: Tissue factor (TF) (UniProt P13726); assay: SPR; average of measurements with different directionality
HER2 [7] = target: HER2 (UniProt P04626); assay: SPR; storage -80 (fresh protein); SD 1.E-10; control row printed a second time
HER2 [8] = target: HER2 (UniProt P04626); assay: SPR; storage 7 d RT; SD 1.E-10; control row printed a second time
HER2 [9] = target: HER2 (UniProt P04626); assay: SPR; storage -80 (fresh protein); SD 1.E-10
HER2 [10] = target: HER2 (UniProt P04626); assay: SPR; average of measurements with different directionality
HER2 [11] = target: HER2 (UniProt P04626); assay: SPR; storage 7 d RT; SD 1.E-10

teplizumab-hOKT3-CD3 FSA, variant 2177 (antibody)
OD450 at 1/60 dilution [1]: > 2 od | OD450 at 1/60 dilution [2]: < 0.1 od

Fab D3H44 (control), variant 696
Kd (Tissue factor (TF) [3]): 0.08 nM | Kd (Tissue factor (TF) [4]): 0.0152 nM | Kd (Tissue factor (TF) [5]): 0.08 nM | Kd (Tissue factor (TF) [6]): 0.0515 nM

Fab 4D5 (control), variant 695
Kd (HER2 [7]): 0.6 nM | Kd (HER2 [8]): 0.8 nM | Kd (HER2 [9]): 0.6 nM | Kd (HER2 [10]): 0.837 nM | Kd (HER2 [11]): 0.8 nM

Variant 506, control antibody that binds HER2, based on the sequence of Herceptin
Kd (HER2 [10]): 0.527 nM
